Substitutions are numbered along the chain they refer to. Names and notes keep the numbering of the source.
B1: 14H10.2C9 (antibody, mouse IgG2a, V domains shown)
VH: QIQLVQSGPELKKPGETVKISCKASGYTFTTYGMGWVKQAPGKDLKWMGWINTYSGVPTYADDFKGRFAFSLETSASTAYLQISNLKNEDTATYFCSTPYEYDGAYWGQGTLVTVSA
VL: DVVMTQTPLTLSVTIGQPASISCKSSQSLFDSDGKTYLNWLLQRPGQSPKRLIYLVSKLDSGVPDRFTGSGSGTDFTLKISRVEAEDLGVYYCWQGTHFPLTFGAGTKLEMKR
B2: F846TC.14E4 (antibody, human IgG4 S228P, kappa, V domains shown)
VH: QVTLKESGPGILQPSQTLSLTCSFSGFSLSTSGMGVGWIRQPSGKGLEWLAHIWWDDDKYYNTALKSGLTISKDASKNQVFLKIASMDTADTATYYCARNLYDGSYGYYAMDYWGQGTSVTVSS
VL: DIVMTQAAFSNPVTLGTSASISCRSSKSLLHTNGITFLYWYLQKPGQSPQPLIYQMSNLASGVPDRFSSSGSGTDFTLRISRVEAEDVGVYYCAQNLELPWTFGGGTKLEINR
B3: 849.1D2 (antibody, V domains shown)
VH: QVQLKESGPVLVAPSQSLSITCTVSGFSLSSYGVHWVRQPPGKGLEWLGVIWAGGSTDYDSALMSRLSISKDNSKSQVFLKMDSLQTDDTAMYYCAKPPYDYDGAWFAYWGQGTLVTVSA
VL: DVVMTQTPKFLLVSAGDRVTITCKASQSVSSDVAWYQQKPGQSPKLLIYFASNRYTGVPDRFTGSGYGTDFTFTISTVQAEDLAVYFCQHNYISPFTFGGGTKLEIK
B4: 2D10-VH0-VL0 (antibody, human IgG4 S228P, kappa, V domains shown)
VH: QVQLQQSGPELVKPGASVKISCKASGYTFTDYYINWVKQRPGQGLEWIGWIYPGSQDTKYNEKFKGKATLTVDTSSSTAYMQLGSLTSEDSAVYFCANYFGSSGWFFDVWGTGTTVTVSS
VL: DIVMTQAAFSNPVTLGTSASISCRSSKSLLHSDGITYLYWYLQRPGQSPQLLIYRMSNLASGVPDRFSGSGSGTDFTLRISRVEAEDVGVYYCAQMIEFPLTFGAGTILELKR
B5: 15F10.2D6 (antibody, mouse IgG2a, V domains shown)
VH: EVQLVESGGGLVKPGGSLKLSCAASGFAFSSYAMSWVRQTPEKRLEWVATISDGGVYTYYTDHVKGRFTISRDNAEDNLYLQMSHLKSEDTAMYYCVRDGGYWGQGTTLTVSS
VL: DVLMTQTPLSLPVSLGDQASISCRSSQSIVHNNGNTYLEWYLQKPGQSPKLLIYKVSNRFSGVPDRFSGSGSGTDFTLKISRVEAEDLGVYYCFQGSHVPLTFGGGTKLELKR
B6: F849C.8D10 (antibody, human IgG4 S228P, kappa, V domains shown)
VH: QVQLQQTGAELVKPGASVKLSCKASGYTFTSYWINWVKQRPGQGLEWIGNIYPGSSSIYYSEKFKSKATLTVDTSSSTAYMQLSSLTSDDSAVYYCARWGYWGQGTTLTVSS
VL: B5 VL with S28D, N32S, N33S, P49L, G69A, L101P, G105S, L111I
B7: 7D8.2D8 (antibody, mouse IgG2a, V domains shown)
VH: B5 VH with A28T, V56I, T61P, H63N, E76K, D77N, Y80F
VL: B5 VL with N32S, G105A
B8: 20H5.A3 (antibody, mouse IgG2a, V domains shown)
VH: QIQLVQSGPELKKPGESVKISCKASGYAFTTYGMSWVQQAPGKGLKWMGWVNTYSGVPTCADDFKGRFAFSLETSASTAYLQINNLRNEDTATYFCARGPYAMDYWGQGTSVTVSS
VL: DIQMTQTTSSLSASLGDRVTINCSASQDISNYLNWYQQKPDGTVKLLIYYTSSLLSGVPSRFSGSGSGTDYSLTISNLEPEDIATYFCQQYSKLPYTFGSGTHLEIKR
B9: 23H9.2E4 (antibody, mouse IgG2a, V domains shown)
VH: B8 VH with S17T, A28T, G33A, Q38K, V51I, C60Y, F64L, R87K
VL: B8 VL with N22S, D28G, S30N, T51A, L55H, F87Y, K93Q, L94V, H103K
B10: 15G7.2A7 (antibody, human IgG4 S228P, kappa, V domains shown)
VH: EVQLQQSGPELVKPGASVKISCKASGYTFTDYYMNWVKQSHGKSLEWIGDINPNNGGTNYNQKFKGKATLTVDKSSSTAYMELRSLTSEDSAVYYCTSGYGFPYWGQGTLVTVSA
VL: DIQMNQSPSSLSASLGDTISITCRASQNINIWLSWYQQKPGNIPQLLIYKASNLHTGVPSRFSGSGSGTDFTLTISSLQPEDIATYYCLQGQSYPLTFGAGTKLVMKR
B11: 20D11.2C6 (antibody, mouse IgG2a, V domains shown)
VH: B10 VH with Y32F, M34I, N54K, T58I, Q62P, G66I, A79S, E82D, S85G
VL: B10 VL with S20T, N30Y, Q45K, S77T, Y87F, V105E
B12: 3B11.2G2 (antibody, mouse IgG2a, V domains shown)
VH: QIQLVQSGPELKKPGETVKISCKTSGYKFKTYVMSWVKQAPGKALKWMGWINTYSGVPTYADDFKGRFAFSLETSASTAYLEIINLKNEDTATYFCARDGNYGDPMDYWGQGTSVTVSS
VL: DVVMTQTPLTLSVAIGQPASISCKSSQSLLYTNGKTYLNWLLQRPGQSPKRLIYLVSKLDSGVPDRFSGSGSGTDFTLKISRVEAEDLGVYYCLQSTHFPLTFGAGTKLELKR
B13: 13A12.2E5 (antibody, mouse IgG2a, V domains shown)
VH: B12 VH
VL: DVVMTQTPLTLSVAIGQPASISCKSSQSLLYTNGKTYLNWLLQRPGQSPKRLIYLLSKLDSGVPDRFSASGSGTDFTLKISRVEAEDLGVYYCLQSTHFPLTFGAGTKLEMKR
B14: F846TC.7F10 (antibody, human IgG4 S228P, kappa, V domains shown)
VH: EVQLVESGGDLVKPGGSLKLSCAASGFTFSNYGLSWIRQTPDKRLEWVATISSGGSYTYYPDSVKGRFTISRDSAKNTLYLQMSSLKSEDTAMYYCARHAHYYGVSPYYFDYWGQGTCLTVSS
VL: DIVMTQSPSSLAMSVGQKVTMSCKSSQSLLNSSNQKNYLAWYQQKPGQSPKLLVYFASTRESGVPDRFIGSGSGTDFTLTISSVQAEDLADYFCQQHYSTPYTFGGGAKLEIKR
B15: 6B3.2D3 (antibody, human IgG4 S228P, kappa, V domains shown)
VH: QVQLKQSGPGLVQPSQSLSITCTVSGFSLTSYGVHWVRQPPGKGLEWLGVIWSGGSTDYNAAFISRLSISKDNSKSQVFFKMNSLQADDTAIYYCAKGPYDYDLGWFAYWGQGTLVTVSA
VL: SIVMTQTPKFLLVSAGDRVTITCKASQSVSNDVAWYQQKPGQSPKLLIYYASNRYTGVPDRFTGSGYGTDFTFTISTVQAEDLAVYFCQQDYTSPYTFGGGTKLEIKR
B16: 849.2D7 (antibody, V domains shown)
VH: QVQLQQSGPQLVRPGASVKISCKASGYSFTNYWMHWVKQRPGQGLEWIGMIDPSDSETRLNQKFKDKATLTVDKSSSTAYMQLSSPTSEDSAVYYCATGRPDYWGQGTTLTVSS
VL: DIVMTQSHKFMSTSVGDRVSITCKASQDVSTAVAWYQQKPGQSPKLLIYWASTRHTGVPDRFTGSGSGTDYTLTISSVQAEDLALYYCQQHYSTPYTFGGGTKLEIK
B17: 849.5H1 (antibody, V domains shown)
VH: B3 VH with S30T, V34I, D58N, D60N, D83N, T87I, Y100H, G104Q, V116I
VL: DIQMNQSPSSLSASLGDTITITCHASQNINVWLSWYQQKPGNIPKLLIYQASNLHTGVPSRFSGRGSGTGFTLTISSLQPEDIATYYCQQGQSSPFTFGSGTKLEIK
B18: 847.16D10 (antibody, V domains shown)
VH: QVQLQQSGAELVRPGASVKLSCKASGYTFTGYWLNWVKQRPGQGLEWIGMIDPSDSETHYNQVFKDKATMTVDRSSSTAYMQLSGLTSEDSAVYYCANSNYASGSWGQGTTLTVSS
VL: QAVVTQESALTTSPGETVTLTCRSSTGAVTTSNYANWDQEKPDHLFTGLIGGTNNRAPGVPARFSGSLIGDKAALTITGAQTEDEAIYFCALWYSNHLVFGGGTKVTVL
B19: 847.23F11 (antibody, V domains shown)
VH: QVQLQQSGAELVRPGASVKLSCKASGYTFTSSWMNWVKQRPGQGLDWIGMIDPSDSETHYNQMFKDKATLTVDKSSNTAYMQLSRLTSEDSAVYYCVNSNYESGYWGQGTTLTVSS
VL: B16 VL with V3L, T31S, A32V, A34V, L46Q
B20: 847.13E2-mH0mL1 (antibody, V domains shown)
VH: EVQLQQSGPELVKPGASVKVSCKASGYSFTDYNMYWVMQSHGKSLEWIGYIDPYNDATSYSQKFTGKATLTVDKSSSTAFMHLNSLTSEDSAVYYCARWGRYEYYAMDYWGQGTSVTVSS
VL: DIVMTQSPASLPVSLGQRATISCRASKSVTTSAYSYIHWYQQRPGQPPKLLIYLASNLESGVPARFSGSGSGTDFTLNIHPVEEEDAATYYCQHNRELPPTFGGGTKLEIN
B21: 847.13E2-mH0mL2 (antibody, V domains shown)
VH: B20 VH
VL: DIVLTQSPATLSVTPGDSVSFSCRASQIINNNLHWYQQKSHESPRLLIRYTSQSISGIPSRFSGSGSGTDFTLSINNVETEDFGMYFCQQTNSWPLTFGAGTKLELK

These binders were tested against T1, Recombinant human Gal3 (rhGal3) (TrueBinding, #QC200361) (human, UniProt P17931 2-250) (assay: cell-based or functional assay).
Further: test concentration or dose not given here.

Binder	% inhibition of IL-6 secretion	% inhibition of TNFα secretion
B1	55.6%	54%
B2	15.7%	50.1%
B3	26.8%	37%
B4	21.7%	39.6%
B5	51.5%	73.5%
B6	-75.8%	-5.5%
B7	17.4%	-11.5%
B8	77.5%	60.8%
B9	92.6%	100%
B10	31%	46.1%
B11	43.7%	69.1%
B12	-4.6%	46.1%
B13	39.4%	61.8%
B14	-2.5%	72.3%
B15	0.2%	-1.2%
B16	39%	42.7%

Molecular target: T1, Recombinant human Gal3 (rhGal3) …
Assay: cell-based or functional assay
Remark: another data set of the same source

Binder	% inhibition of CD62L shedding
B1	86.3%
B2	90.3%
B3	130%
B17	87.5%
B4	62.4%
B5	82.5%
B6	180%
B7	88.6%
B8	66.3%
B9	91.9%
B10	110%
B11	89.4%
B18	14.4%
B12	92.7%
B13	87.1%
B14	96.1%
B15	98.9%
B16	78.1%
B19	15.2%
B20	79.9%
B21	18.8%

Source: patent US20250243282A1 (TRUEBINDING, published 2025)
